Columns and labels:
Experiment in all cases: SPR
[1] = molecular target: Core.HXB2 (core gp120 of HIV-1 strain HxB2, wild-type CD4 binding site) (HIV-1 strain HxB2)
[2] = molecular target: Core.BaL-GT1 (germline-targeting variant of core gp120) (HIV-1 strain BaL (from the name))
[3] = molecular target: eOD-GT6 (germline-targeting engineered outer domain of gp120) (HIV-1 strain HxB2)

With “GL-3BNC60 (predicted germline precursor of 3BNC60) (antibody)” the Kd [1] was greater than 100000 nM.

“GL-PGV04 (predicted germline precursor of PGV04) (antibody)” was tested, and the Kd [2] was greater than 100000 nM and the Kd [1] was greater than 100000 nM.

PGV20 (mature) (antibody) showed a Kd [3] of 6 nM, a Kd [2] of 4 nM and a Kd [1] of 19 nM.

Work on “GL-12A12 (predicted germline precursor of 12A12) (antibody)” yielded a Kd [1] greater than 100000 nM.

For “GL-PGV20 (predicted germline precursor of PGV20) (antibody)”, the Kd [1] was greater than 100000 nM.

In the case of “GL-NIH45-46 (predicted germline precursor of NIH45-46) (antibody)”, the Kd [2] is reported as greater than 100000 nM.

With “GL-PGV19 (predicted germline precursor of PGV19) (antibody)” the Kd [3] was 19 nM and the Kd [1] was greater than 100000 nM.

3BNC60 (mature) (antibody) showed a Kd [2] of 4 nM.

For 12A12 (mature) (antibody), the Kd [1] was 6 nM.

With “GL-VRC-CH31 (predicted germline precursor of VRC-CH31) (antibody)” the Kd [1] was greater than 100000 nM.

From PMC3689846
